Data published in PMC10374466.

What was measured:
mouse IDO1 [1] = biological target: T1, mouse IDO1 (Mus musculus, UniProt P28776 1-407); experiment: flow cytometry on protein-coated beads
mouse IDO1 [2] = biological target: T1, mouse IDO1; experiment: flow cytometry on protein-coated beads; remark: listed apart in the source

T1 sequence (P28776 whole entry): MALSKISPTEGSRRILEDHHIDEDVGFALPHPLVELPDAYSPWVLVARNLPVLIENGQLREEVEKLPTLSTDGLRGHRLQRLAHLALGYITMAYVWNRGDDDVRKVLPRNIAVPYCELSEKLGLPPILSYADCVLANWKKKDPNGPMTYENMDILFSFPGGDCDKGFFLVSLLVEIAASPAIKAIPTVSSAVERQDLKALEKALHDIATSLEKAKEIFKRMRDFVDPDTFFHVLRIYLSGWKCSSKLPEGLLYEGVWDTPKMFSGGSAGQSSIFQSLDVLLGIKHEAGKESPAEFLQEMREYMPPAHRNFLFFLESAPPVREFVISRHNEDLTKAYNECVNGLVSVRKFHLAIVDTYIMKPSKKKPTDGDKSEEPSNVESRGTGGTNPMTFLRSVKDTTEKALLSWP

Binder | binding result (mouse IDO1 [1]) | Kd (mouse IDO1 [2])
#1 (ssDNA) DNA: CAGCACCGTCAACTGAATATCAGGACGGACCTGGGGAGGTCAGTTAGCCCTCTGAACTGTGATGCGATGGAGATGT | binds | –
IDO-APT (#4) (ssDNA) DNA: CAGCACCGTCAACTGAATGCCAACGGCATATCCGGACAGGCGGGAACCTAGGGCCTTTGTGATGCGATGGAGATGT | – | 131 ± 9 nM
#3 (ssDNA) DNA: CAGCACCGTCAACTGAATAGGAAGATACCCGGGGGTACCGTTACCGCTGTGAACGGAGGTGATGCGATGGAGATGT | binds | –
#2 (ssDNA) DNA: CAGCACCGTCAACTGAATCCGTCACTCGCTCGGGGGTCCGACATTTACCCTGTGAAATGTGATGCGATGGAGATGT | binds | –
